Measured values from PMC3229523, “Identification of Lactoferricin B Intracellular Targets Using an Escherichia coli Proteome Chip” (PLoS ONE, 2011).
Ends that are not written are not given here. * marks the point of attachment. Biotin = O=C1N[C@H]2[C@H](CS[C@H]2CCCCC(=O)*)N1

What was measured:
Test in all cases: peptide or protein array; E. coli proteome chip: purified His-tagged proteins printed in duplicate on Fullmoon slides, blocked with 1% BSA; 10 nM N-terminal biotinylated LfcinB with 1% BSA, room temperature, 1 h; detected with DyLight 649-labeled streptavidin, ratio to DyLight 549-labeled anti-His antibody; ProCAT normalisation, local cut-off; triplicate chips
Details in all cases: both partners purified
EnvR = target: T1, EnvR (E. coli K-12, UniProt P0ACT2 1-220)
T1 construct: EnvR, E. coli K-12
T1 sequence (looked up): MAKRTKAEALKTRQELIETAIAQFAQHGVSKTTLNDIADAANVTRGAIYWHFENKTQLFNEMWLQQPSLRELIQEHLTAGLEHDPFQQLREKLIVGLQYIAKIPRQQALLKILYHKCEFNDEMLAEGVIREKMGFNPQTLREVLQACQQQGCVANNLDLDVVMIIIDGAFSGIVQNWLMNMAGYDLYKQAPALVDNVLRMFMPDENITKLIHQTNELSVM

SoxR = target: T2, SoxR (E. coli K-12, UniProt P0ACS2 1-154)
T2 construct: SoxR, E. coli K-12
T2 sequence (looked up): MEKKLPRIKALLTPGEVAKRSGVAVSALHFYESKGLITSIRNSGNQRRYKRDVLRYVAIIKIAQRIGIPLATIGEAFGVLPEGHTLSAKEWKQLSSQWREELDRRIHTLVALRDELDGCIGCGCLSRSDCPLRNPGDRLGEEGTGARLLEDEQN

WcaL = target: T3, WcaL (E. coli K-12, UniProt P71243 1-406)
T3 construct: WcaL, E. coli K-12
T3 sequence (looked up): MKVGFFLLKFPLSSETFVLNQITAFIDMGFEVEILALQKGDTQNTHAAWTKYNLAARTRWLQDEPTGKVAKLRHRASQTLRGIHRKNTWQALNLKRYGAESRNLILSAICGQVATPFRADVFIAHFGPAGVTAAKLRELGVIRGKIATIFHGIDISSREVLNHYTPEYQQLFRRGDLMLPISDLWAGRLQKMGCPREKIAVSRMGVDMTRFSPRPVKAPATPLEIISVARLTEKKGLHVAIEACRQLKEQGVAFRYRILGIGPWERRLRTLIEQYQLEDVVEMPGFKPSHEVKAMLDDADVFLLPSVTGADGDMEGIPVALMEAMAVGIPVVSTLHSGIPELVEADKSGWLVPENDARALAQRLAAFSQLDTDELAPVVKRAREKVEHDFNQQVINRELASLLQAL

HisA = target: T4, HisA (E. coli K-12, UniProt P10371 1-245)
T4 construct: HisA, E. coli K-12
T4 sequence (P10371 whole entry): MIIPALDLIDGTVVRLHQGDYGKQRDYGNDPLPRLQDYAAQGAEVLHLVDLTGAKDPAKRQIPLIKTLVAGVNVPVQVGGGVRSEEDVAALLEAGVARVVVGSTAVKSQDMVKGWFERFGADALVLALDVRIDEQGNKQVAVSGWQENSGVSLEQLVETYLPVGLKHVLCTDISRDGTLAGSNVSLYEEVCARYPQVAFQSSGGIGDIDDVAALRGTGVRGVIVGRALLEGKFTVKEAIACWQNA

DnaT = target: T5, DnaT (E. coli K-12, UniProt P0A8J2 1-179)
T5 construct: DnaT, E. coli K-12
T5 sequence (looked up): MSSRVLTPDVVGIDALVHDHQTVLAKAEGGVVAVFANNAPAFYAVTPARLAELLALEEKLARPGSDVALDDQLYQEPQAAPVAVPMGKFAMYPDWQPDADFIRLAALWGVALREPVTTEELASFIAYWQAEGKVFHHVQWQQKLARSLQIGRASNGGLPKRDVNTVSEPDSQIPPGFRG

RfaS = target: T6, RfaS (E. coli K-12, UniProt P27126 1-311)
T6 construct: RfaS, E. coli K-12
T6 sequence (looked up): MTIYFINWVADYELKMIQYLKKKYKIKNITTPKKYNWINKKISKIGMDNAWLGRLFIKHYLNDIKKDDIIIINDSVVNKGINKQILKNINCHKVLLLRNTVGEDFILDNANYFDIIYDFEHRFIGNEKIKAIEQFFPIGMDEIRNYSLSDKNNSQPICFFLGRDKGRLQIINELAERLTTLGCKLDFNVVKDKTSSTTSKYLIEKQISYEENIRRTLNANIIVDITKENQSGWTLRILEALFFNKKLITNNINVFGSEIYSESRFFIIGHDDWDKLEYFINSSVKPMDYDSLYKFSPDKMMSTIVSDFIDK

YqiA = target: T7, YqiA (E. coli K-12, UniProt P0A8Z7 1-193)
T7 construct: YqiA, E. coli K-12
T7 sequence (P0A8Z7 whole entry): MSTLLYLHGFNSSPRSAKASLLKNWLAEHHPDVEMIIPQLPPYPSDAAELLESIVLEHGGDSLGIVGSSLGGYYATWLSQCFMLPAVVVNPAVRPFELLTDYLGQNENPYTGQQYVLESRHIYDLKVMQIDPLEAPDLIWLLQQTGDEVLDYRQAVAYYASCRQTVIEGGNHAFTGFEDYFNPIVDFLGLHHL

Measured: binding result

B1: N-terminal biotinylated Lactoferricin B (peptide, UniProt P24627 36-60, looked up)
peptide: Biotin-FKCRRWQWRMKKLGAPSITCVRRAF
modifications: ends and bridges not checked
notes: lactoferricin B (LfcinB), cationic antimicrobial peptide of 25 amino acids; also called biotinylated LfcinB; biotin-labeled LfcinB; source: bought: Kelowna Inc
binds: EnvR | SoxR | WcaL | HisA | DnaT | RfaS | YqiA
